Reference: patent publication US7963935B2, “Microprojection array having a beneficial agent containing coating” (Alza Corporation, priority 2001, dated 2011)
Where a name gives a salt, the structure may show the parent alone.

Assays:
[1] = Dry film/coating on titanium foil: inspection and redissolution/rehydration in water; type: physicochemical
Protocol: In order to test the ability of aqueous albumin solutions to form solid coatings on titanium microprojections, a coated microprojection array was prepared in the following manner. […] To aliquots of these solutions, fluorescein, a marker added for subsequent visualization of the dried coating, was added at a final concentration of 1 millimolar. A 1-microliter drop of this solution was spread on titanium foil having an area of about one centimeter square. The solution was allowed to dry at room temperature for about 1 hour.
A coated microprojection array was prepared in the following manner. […] To this suspension, fluorescein, a marker added for subsequent visualization, was added at a final concentration of 1 millimolar. A 1 microliter drop of this suspension was spread on titanium foil having an area of 1 square centimeter and allowed to dry at room temperature for about an hour.
To 50 microliters of this solution, 50 microliters of a 40 percent by weight aqueous solution of lidocaine HCl was added. A control solution containing no albumin was also prepared. 1-microliter drops of these solutions were spread on titanium foil having an area of approximately 1 square centimeter. The solutions were allowed to air dry at room temperature for about 1 hour.

[2] = hGH delivery studies with tip-coated microprojection arrays; plasma hGH by ELISA, compared with subcutaneous injection; type: in vivo, hairless guinea pigs; details: for Cmax / tmax: plasma hGH
Protocol: An aqueous solution containing 20 wt % human growth hormone (20 wt % hGH), and 20 wt % sucrose was prepared. […] The tips of the microprojections were coated with this solution by passing the arrays over a rotating drum carrying the hGH/sucrose solution using the method and apparatus disclosed in U.S. Patent Application Ser. No. 60/276,762 filed Mar. 16, 2001. Four successive coatings were performed on each microprojection array at 4° C. The amount of protein coated on the arrays was evaluated by total protein assay. An average of 9.5±0.9 μg of hGH was coated per array. […] On the microprojection itself, the coating was found unevenly distributed. Most of the solid coating appeared to be located in caps centered on the geometric center of the faces of the coated area of the microprojections. […] The maximum measured thickness of the coating was about 4 μm while the average calculated thickness over the entire coated area was only about 1.7 μm. Overall, the coating presented good aerodynamics and good adhesion, consistent with minimum effect on penetration of the microprojections into the skin and minimal removal of the drug from the microprojection during penetration.
Some of the hGH tip-coated arrays were subsequently used for drug delivery studies in hairless guinea pigs. The application of the coated microprojection arrays was done using an impact applicator (total energy=0.4 Joules, delivered in less than 10 milliseconds) using a spring-driven impact applicator or the type disclosed in U.S. Patent Application Ser. No. 60/240,307 filed Oct. 13, 2000. The arrays were left on the skin after application for 5 seconds, 5 minutes, or 1 hour, in groups of three animals. Blood was collected at time intervals for plasma hGH determination by ELISA. […] On average, 5 μg of hGH was delivered in each animal, which accounts for approximately 50% of the coated dose. […] Finally, the 5 minute wearing time group had the smallest CV (30%), which is even smaller than that observed following subcutaneous injection (50%).

For `CCN(CC)CC(=O)Nc1c(C)cccc1C` [lidocaine HCl], the “nature of dried film (hygroscopicity, suitability for storage)” value ([1]; control solution without albumin) was “very hygroscopic film unsuitable for subsequent storage”.

In the case of Cyclosporin A [CSA], the “release of drug particles from dry albumin coating following rehydration” value ([1]; CSA suspension in 20 wt% human albumin, dried on titanium foil, particles 1 to 25 micrometers) is reported as “freed readily following rehydration”.

In the case of human growth hormone [hGH], the “hGH delivery versus wearing time” value ([2]; arrays left on skin 5 seconds, 5 minutes or 1 hour) is reported as “the same at all wearing times”, the “amount of hGH delivered in each animal (average)” value ([2]; hGH/sucrose tip-coated microprojection array, impact applicator, hairless guinea pigs, all wearing times) is reported as 5 µg and the Cmax ([2]; microprojection administration) is reported as 13 ng/mL. The tmax ([2]; microprojection administration) was 30 min, the “hGH delivered as fraction of the coated dose” value ([2]; microprojection array, hairless guinea pigs) was “approximately 50%” and the “fraction of the coated dose delivered into the skin” value ([2]; microprojection array, assuming bioavailability similar to subcutaneous (65%)) was “about 80%”. The bioavailability ([2]; subcutaneous administration) was 65%, the Cmax ([2]; subcutaneous injection) was 5 ng/mL and the tmax ([2]; subcutaneous injection) was 60 min.
